T1: CsCH3H (Cosmos sulphureus, UniProt D8KZE8)
T1 construct: recombinant, expressed in Saccharomyces cerevisiae INVSc1, microsomal preparation
T1 sequence (D8KZE8 1-512): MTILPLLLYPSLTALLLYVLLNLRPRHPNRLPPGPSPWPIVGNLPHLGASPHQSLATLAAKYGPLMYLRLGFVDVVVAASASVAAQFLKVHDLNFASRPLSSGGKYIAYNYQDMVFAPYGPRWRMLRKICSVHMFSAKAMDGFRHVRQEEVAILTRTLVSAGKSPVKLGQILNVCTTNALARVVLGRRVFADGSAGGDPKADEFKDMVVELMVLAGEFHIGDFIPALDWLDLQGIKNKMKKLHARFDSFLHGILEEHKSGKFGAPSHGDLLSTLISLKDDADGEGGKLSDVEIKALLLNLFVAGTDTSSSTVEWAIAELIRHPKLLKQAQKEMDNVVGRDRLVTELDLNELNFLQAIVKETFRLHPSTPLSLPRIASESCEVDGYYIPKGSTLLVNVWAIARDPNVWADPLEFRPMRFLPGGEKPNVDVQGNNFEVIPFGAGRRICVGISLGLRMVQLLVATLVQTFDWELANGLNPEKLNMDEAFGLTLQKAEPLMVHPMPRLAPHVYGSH

B1: MdF3′HI (Malus domestica; I211M) (protein)
chain: MFVLIVFTVVFAFFLYRIFAPGGSRHSLPLPPGPKPWPVVGNLPHLGPVPHHSLAALARQYGPLMHLRLGFVDVVVAASASVASQFLKTHDANFSSRPPNSGAKHLAYNYQDLVFAPYGPRWRLLRKISSVHLFSGKALDDLKHVRQEEVGVLAHGLASAGSKPVNLAQLLNVCTVNALGRVMVGRRLFGNGMGGEDPKADEFKSMVVEMMVLAGVFNIGDFISSLEWLDLQGVAGKMKKLHKRFDAFLTAIVEEHKRSRGGKHVDMLTTLLSLKEDADGEGAKLTDTEIKALLLNMFTAGTDTSSSTVEWAIAELLRHPKILAQLQQELDQVVGRDRLVTESDLPNLTYLQAVIKETFRLHPSTPLSLPRMATESCEINGFHIPKGATLLVNVWAVSRDPDQWSEPLEFRPERFMSGGEKPNVDIRGNDFEVIPFGAGRRICAGMSLGLRMVSLMTATLVHGFDWTLADGLTPEKLNMDEAYGLTLQRAAPLMVHPRNRLAPHAYNASSS
notes: full-length ORF, 511 residues, C-terminal Twin-Strep-tag, expressed in Saccharomyces cerevisiae INVSc1, microsomal preparation; clone MH468788 has I211 and S224, differing from FJ919631 at both residues (M211 and P224 there)
B2: MdF3′HII (Malus domestica) (protein)
chain: MFVLIFFTVVLAFFLYRLFAPGGSRHALPLPPGPKPWPVVGNLPHLGPVPHHSLAALARQYGPLMHLRLGFADVVVAASASVASQFLKTHDANFSSRPPNSGAKHLAYNYQDLVFAPYGPRWRMLRKISSVHLFSGKALDDLKHVRQEEVGVLAHGLASAGSKPVSLGQLLNVCTVNALGRVMVGRRLFGDGGGREDQKADEFKSMVVEMMVLAGVFNIGDFIPALEWLDLQGVAGKMKKLHKRFDAFLTAIVEDHKRSGEGKHVDMLTTLLSLTDDADGEGAKLTDTEIKALLLNMFTAGTDTSSSTVEWAIAELLRHPKILAQLQQELDQVVGRDRLVTESDLPNLTYLQAVIKETFRLHPSTPLSLPRMASESCEINGFHIPKGATLLVNVWAISRDPAQWSEPLEFRPERFLPGGEKPNVDVKGNDFEVIPFGAGRRICAGMTLGLRMVSLMTATLVHGFDWTLADGLTPEKLNMDEAYGLTLQRAAPLMVHPRNRLAPHAYNASSP
notes: full-length ORF, 511 residues, C-terminal Twin-Strep-tag, expressed in Saccharomyces cerevisiae INVSc1, microsomal preparation; differs from FJ919633 at residues 73 and 457

Key:
CsCH3H = target: T1, CsCH3H; experiment: LC-MS/DAD detection of 3-hydroxyphloretin formed by yeast microsomes; assay type: biochemical; conditions: 10 µM substrate, 1.55 mM NADPH, 100 mM HEPES pH 7.5, 30 °C
[1] = substrate: O=c1c(O)c(-c2ccc(O)cc2)oc2cc(O)cc(O)c12; experiment: cells, lysate or membranes; assay type: biochemical, Malus domestica; conditions: 0.5 mM NADPH, Tris/HCl pH 6.5–6.75, 25 °C, labelled compound, pH 6.0
[2] = substrate: O=C1c2c(O)cc(O)cc2O[C@H](c2ccc(O)cc2)[C@H]1O; experiment: cells, lysate or membranes; assay type: biochemical, Malus domestica; conditions: 0.5 mM NADPH, Tris/HCl pH 6.5–6.75, 25 °C, labelled compound, pH 6.0
[3] = substrate: O=C1C[C@@H](c2ccc(O)cc2)Oc2cc(O)cc(O)c21; experiment: cells, lysate or membranes; assay type: biochemical, Malus domestica; conditions: 0.5 mM NADPH, Tris/HCl pH 6.5–6.75, 25 °C, labelled compound, pH 6.0

Row | Molecule | LC-MS/DAD detection of 3-hydroxyphloretin formed by yeast microsomes (CsCH3H) | Km [1] [µM] | Vmax [1] [µM/min] | Km [2] [µM] | Vmax [2] [µM/min] | Km [3] [µM] | Vmax [3] [µM/min]
1 | O=C(CCc1ccc(O)cc1)c1c(O)cc(O)cc1O [phloretin] | produced sufficient amounts of 3-hydroxyphloretin to be detected by the DAD |  |  |  |  |  | 
2 | B1 |  | 0.21 ± 0.07 | 21 | 0.42 ± 0.06 | 28.2 | 2.11 ± 1.5 | 43.8
3 | B2 |  | 0.20 ± 0.02 | 19.8 | 0.31 ± 0.03 | 19.8 | 0.31 ± 0.10 | 30
